Reference: the supplement of paper PMC7877785
± gives the uncertainty stated by the source.

Assay: self-splicing fitness, log relative to wild type (ln ratio); higher = more splicing; Tetrahymena group I intron in knt gene, E. coli kanamycin selection, DiMSum; sequences stand for … in CUCUCU…GGAGGGAAAAGUUAUCAGGCAUGCACCUGGUAGCUAGUCUUUAAACCAAUAGAUUGCAUCGGUUUAAAAGGCAAGACCGUCAAAUUGCGGGAAAGGGGUCAACAGCCGUUCAGUACCAAGUCUCAGGGGAAACUUUGAGAUGGCCUUGCAAAGGGUAUGGUAAUAAGCUGACGGACAUGGUCCUAACCACGCAGCCAAGUCCUAAGUCAACAGAUCUUCUGUUGAUAUGGAUGCAGUUCACAGACUAAAUGUCGGUCGGGGAAGAUGUAUUCUUCUCAUAAGAUAUAGUCGGACCUCUCCUUAAUGGGAGCUAGCGGAUGAAGUGAUGCAACACUGGAGCCGCUGGGAACUAAUUUGUAUGCGAAAGUAUAUUGAUUAGUUUUGGAGUACUCGUGGUCG
Procedure, shortened: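 Pooled colonies went to amplicon sequencing on an Illumina HiSeq 2500 after six replicate transformations. The plates were LB agar with 100 μg/mL carbenicillin, 50 μM IPTG and 0.2% rhamnose, with or without 25 μg/mL kanamycin, incubated overnight at 37°C or 30°C. The E. coli BL21(DE3) library had all eight P1ex-region intron nucleotides randomised, the intron placed in the knt kanamycin-resistance gene on pET-22b(+). DiMSum fitness is the error-weighted combination of replicate fold changes, kanamycin against none, normalised to wild type.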

Row | Sequence | self-splicing fitness (ln) (30 °C) | self-splicing fitness (ln) (37 °C)
1 | UAUAAGCAAUAUUACGGCGA | -0.0284 ± 0.1 | -0.427 ± 0.11
2 | UAAAAGCAAUAUUACGUGUG | -1.07 ± 0.052 | -0.712 ± 0.069
3 | CGAAAGCAAUAUUACGACAG | -0.552 ± 0.068 | -0.0312 ± 0.081
4 | AAACAGCAAUAUUACGCUUG | -1.9 ± 0.096 | -0.605 ± 0.098
5 | AGCAAGCAAUAUUACGGAUU | -1.94 ± 0.07 | -0.407 ± 0.084
6 | CGGUAGCAAUAUUACGAUUA | -2.71 ± 0.31 | 0.554 ± 0.2
7 | AACGAGCAAUAUUACGUCUU | -1.33 ± 0.074 | -0.279 ± 0.093
8 | GAAUAGCAAUAUUACGCGCA | -0.334 ± 0.066 | -0.494 ± 0.074
9 | CUGGAGCAAUAUUACGGCCU | -2.88 ± 0.38 | -1.85 ± 0.3
10 | AGAUAGCAAUAUUACGUAUU | -2.63 ± 0.14 | -1.35 ± 0.12
11 | GGCUAGCAAUAUUACGCCUA | -0.205 ± 0.23 | -1.69 ± 0.3
12 | UCGGAGCAAUAUUACGGAUU | -2.73 ± 0.27 | -2.85 ± 0.38
13 | UUGAAGCAAUAUUACGCAGU | -1.2 ± 0.3 | -1.54 ± 0.32
14 | CGCAAGCAAUAUUACGACCC | -2.18 ± 0.3 | 0.0863 ± 0.29
15 | AAGAAGCAAUAUUACGUGCA | -0.663 ± 0.08 | -0.0733 ± 0.1
16 | UCGGAGCAAUAUUACGAACG | – | -1.54 ± 0.35
17 | UCGUAGCAAUAUUACGACGG | -2.04 ± 0.2 | -0.573 ± 0.19
18 | GUUGAGCAAUAUUACGAGUA | – | -1.41 ± 0.39
19 | UUAGAGCAAUAUUACGUGCU | – | -1.79 ± 0.4
20 | AAGCAGCAAUAUUACGUGUA | -1.83 ± 0.081 | -0.134 ± 0.077
21 | CGGGAGCAAUAUUACGAAUA | -2.55 ± 0.36 | -2.52 ± 0.39
22 | AAGCAGCAAUAUUACGUCAU | -3.1 ± 0.14 | -1.76 ± 0.14
23 | AACAAGCAAUAUUACGUAUA | -2.4 ± 0.13 | -1.59 ± 0.12
24 | GUGUAGCAAUAUUACGUGGG | -4.25 ± 0.21 | -4.08 ± 0.26
25 | GGGUAGCAAUAUUACGACUA | -0.339 ± 0.1 | 0.878 ± 0.15
26 | GAGAAGCAAUAUUACGAGAU | -4.47 ± 0.42 | -2.1 ± 0.22

Row | Sequence | self-splicing fitness (ln) (30 °C) | self-splicing fitness (ln) (37 °C)
27 | AUACAGCAAUAUUACGGGAG | -3.35 ± 0.15 | -2.12 ± 0.13
28 | AAGAAGCAAUAUUACGAGGG | -3.5 ± 0.3 | -2.32 ± 0.35
29 | AGGAAGCAAUAUUACGUGUU | -3.8 ± 0.21 | -0.935 ± 0.14
30 | UUCAAGCAAUAUUACGGAUU | -3.19 ± 0.17 | -1.96 ± 0.14
31 | AUCCAGCAAUAUUACGUAGA | -0.783 ± 0.073 | -0.0552 ± 0.12
32 | CUAGAGCAAUAUUACGGCAC | – | -0.856 ± 0.49
33 | GACAAGCAAUAUUACGGUUC | -3.57 ± 0.16 | -2.81 ± 0.32
34 | CUCAAGCAAUAUUACGUGAC | -2.46 ± 0.15 | -0.92 ± 0.12
35 | AAUCAGCAAUAUUACGAAAU | -0.801 ± 0.066 | 0.368 ± 0.092
36 | UGAUAGCAAUAUUACGGCUA | -0.455 ± 0.14 | 0.0243 ± 0.14
37 | UACGAGCAAUAUUACGUGUG | -2.43 ± 0.15 | -1.82 ± 0.12
38 | CUCAAGCAAUAUUACGGUAG | -2.03 ± 0.074 | -0.579 ± 0.08
39 | AGCAAGCAAUAUUACGAUAU | -2.16 ± 0.13 | -1.51 ± 0.11
40 | AAAAAGCAAUAUUACGGGCC | -1.8 ± 0.28 | -1.17 ± 0.22
41 | UUUGAGCAAUAUUACGAGGA | -3.62 ± 0.28 | -3.55 ± 0.46
42 | CGGGAGCAAUAUUACGCAAG | -3.14 ± 0.23 | -2.13 ± 0.29
43 | UCCCAGCAAUAUUACGGCAA | -0.595 ± 0.1 | 0.128 ± 0.11
44 | GGCGAGCAAUAUUACGCCUA | – | -1.76 ± 0.23
45 | ACUGAGCAAUAUUACGGAUG | -2.58 ± 0.12 | -1.67 ± 0.14
46 | GUCAAGCAAUAUUACGAUUA | -1.04 ± 0.1 | -0.259 ± 0.068
47 | CUGGAGCAAUAUUACGGCAG | -2.77 ± 0.15 | -1.94 ± 0.16
48 | UGUGAGCAAUAUUACGAAUG | -2.16 ± 0.1 | -0.688 ± 0.097
49 | GAAGAGCAAUAUUACGGUGU | -3.49 ± 0.14 | -3.02 ± 0.23
50 | GCAGAGCAAUAUUACGACGU | -0.995 ± 0.14 | -1.5 ± 0.18
51 | CGGCAGCAAUAUUACGUAUU | -3.6 ± 0.16 | -3.11 ± 0.18
52 | AACUAGCAAUAUUACGUCGU | -1.8 ± 0.055 | -1.03 ± 0.067

Row | Sequence | self-splicing fitness (ln) (30 °C) | self-splicing fitness (ln) (37 °C)
53 | GUGUAGCAAUAUUACGCUAG | -3.53 ± 0.31 | -1.88 ± 0.36
54 | CGAGAGCAAUAUUACGGCGG | -1.63 ± 0.14 | -0.665 ± 0.26
55 | CUCAAGCAAUAUUACGUUUG | -2.21 ± 0.12 | -2.8 ± 0.15
56 | CUUGAGCAAUAUUACGCCGG | -4.04 ± 0.46 | -1.65 ± 0.47
57 | GGUGAGCAAUAUUACGCGAC | -3.49 ± 0.29 | -3.12 ± 0.25
58 | AAUAAGCAAUAUUACGUUUA | -2.05 ± 0.084 | -1.3 ± 0.096
59 | AGGCAGCAAUAUUACGGCUC | -0.958 ± 0.17 | -0.371 ± 0.19
60 | CGCGAGCAAUAUUACGCCCU | -3.1 ± 0.29 | -2.5 ± 0.39
61 | UAUUAGCAAUAUUACGAUCG | -0.211 ± 0.12 | 0.607 ± 0.18
62 | UCUAAGCAAUAUUACGCAUA | -1.86 ± 0.18 | -2.33 ± 0.25
63 | CCGCAGCAAUAUUACGAUGG | -4.91 ± 0.28 | -2.52 ± 0.2
64 | UAUAAGCAAUAUUACGGAGU | -3.46 ± 0.32 | -1.46 ± 0.2
65 | GUUAAGCAAUAUUACGCGCA | -0.293 ± 0.12 | 0.115 ± 0.15
66 | CCGAAGCAAUAUUACGCGCG | -1.23 ± 0.11 | 0.0615 ± 0.12
67 | GAUGAGCAAUAUUACGUGCG | -3.79 ± 0.17 | -1.8 ± 0.13
68 | UUGGAGCAAUAUUACGCCCA | -2.38 ± 0.23 | -0.932 ± 0.4
69 | AAUGAGCAAUAUUACGGGUU | -2.36 ± 0.14 | -2.13 ± 0.2
70 | CAGAAGCAAUAUUACGUAAC | -3.85 ± 0.27 | -2.26 ± 0.32
71 | UUACAGCAAUAUUACGUAUU | -2.89 ± 0.14 | -1.55 ± 0.12
72 | UGCCAGCAAUAUUACGUUCC | -1.31 ± 0.31 | -2.25 ± 0.3
73 | AGUUAGCAAUAUUACGCCGC | -2.09 ± 0.38 | –
74 | UUUUAGCAAUAUUACGUUUG | -1.6 ± 0.082 | -0.497 ± 0.12
75 | UGGGAGCAAUAUUACGGGCC | -2.63 ± 0.32 | -1.92 ± 0.35
76 | UCGGAGCAAUAUUACGACGC | -1.25 ± 0.25 | -0.73 ± 0.22
77 | AUGCAGCAAUAUUACGCAAG | -1.92 ± 0.091 | -1.72 ± 0.096
78 | GAUGAGCAAUAUUACGUGUC | -3.53 ± 0.31 | –
